Consider one molecule from article PMC9376891.

For the assay, the target named is Rae1(31-368)-Nup98(157-213) heterodimer (human), P78406. Briefly: ITC. In general terms: ITC needs no label: the signal is the heat of the interaction.

B1: VSV M NTE peptide (peptide)
chain: DEMDTHDPNQLRY
modifications: not checked
One may read the Kd as the constant that tells how readily two partners part at equilibrium. Read a high Kd as a looser complex. As to B1, the Kd turned out to be 117 µM.
